# Results: publication PMC10786891, “Massively parallel profiling of RNA-targeting CRISPR-Cas13d”
# T1: EsCas13d, nuclease-dead (Eubacterium siraeum, UniProt B0MS50, R295A;H300A;R849A;H854A)
# T1 sequence: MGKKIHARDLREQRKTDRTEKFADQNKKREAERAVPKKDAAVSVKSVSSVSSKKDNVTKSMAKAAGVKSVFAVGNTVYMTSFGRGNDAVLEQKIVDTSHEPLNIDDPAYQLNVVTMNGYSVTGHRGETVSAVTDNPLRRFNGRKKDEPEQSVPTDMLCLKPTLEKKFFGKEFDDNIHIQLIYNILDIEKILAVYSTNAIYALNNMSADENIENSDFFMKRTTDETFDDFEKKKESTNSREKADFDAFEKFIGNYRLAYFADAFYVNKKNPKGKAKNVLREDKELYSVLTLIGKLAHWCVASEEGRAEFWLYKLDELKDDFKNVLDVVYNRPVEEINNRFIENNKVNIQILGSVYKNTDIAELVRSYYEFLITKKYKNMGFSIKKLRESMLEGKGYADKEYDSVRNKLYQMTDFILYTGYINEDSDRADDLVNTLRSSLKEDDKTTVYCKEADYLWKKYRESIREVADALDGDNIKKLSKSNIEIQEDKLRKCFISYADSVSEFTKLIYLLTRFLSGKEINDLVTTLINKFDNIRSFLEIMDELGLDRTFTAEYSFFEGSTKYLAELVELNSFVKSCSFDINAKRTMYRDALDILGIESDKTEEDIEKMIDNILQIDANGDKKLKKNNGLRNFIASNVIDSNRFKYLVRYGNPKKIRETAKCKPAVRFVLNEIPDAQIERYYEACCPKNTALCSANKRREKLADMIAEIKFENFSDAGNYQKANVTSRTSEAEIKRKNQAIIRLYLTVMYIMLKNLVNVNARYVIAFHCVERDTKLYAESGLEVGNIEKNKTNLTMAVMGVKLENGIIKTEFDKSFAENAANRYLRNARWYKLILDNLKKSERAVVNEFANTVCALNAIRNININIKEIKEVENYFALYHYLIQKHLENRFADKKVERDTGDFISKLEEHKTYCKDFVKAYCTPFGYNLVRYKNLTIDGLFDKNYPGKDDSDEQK
# Molecular target: T1, EsCas13d, nuclease-dead
# Experiment: crRNA (strand 1, pre-loaded); Mg2+; 40 mM Tris-HCl pH 7.5, 150 mM NaCl, 6 mM MgCl2, 1 mM DTT, 0.1% Tween-20, 0.2 mg/ml BSA; 25 C; 10 min per concentration, then washed
# Conditions: tags: His6-TwinStrep-SUMO cleaved; N-terminal SNAP kept (SNAP-Surface 488); label: 3' end held by stalled T7 RNA polymerase
row,Binder,Kd [nM]
1,"target 1 insG 3' of 18,insU 3' of 13 (mixed) RNA 1: CACCCGUGCAAAAAUGCAGGGGUCUAAAACUGAGCGGAUAACCUCUCUAUGG RNA 2: GGGAAUGGAUCCACAUCUACGAAUUCGUACCAUAGGAGAGUGUUAUCCGCUCACCGAGAUCGGAAGAGCACACGU",71 ± 17
2,"target 1 G17U,C21U (mixed) RNA 1: CACCCGUGCAAAAAUGCAGGGGUCUAAAACUGAGCGGAUAACCUCUCUAUGG RNA 2: GGGAAUGGAUCCACAUCUACGAAUUCGUACUAUAUAGAGGUUAUCCGCUCACCGAGAUCGGAAGAGCACACGU",12 ± 0.9
3,"target 1 U3A,C4U (mixed) RNA 1: CACCCGUGCAAAAAUGCAGGGGUCUAAAACUGAGCGGAUAACCUCUCUAUGG RNA 2: GGGAAUGGAUCCACAUCUACGAAUUCGUACCAUAGAGAGGUUAUCCGUACACCGAGAUCGGAAGAGCACACGU",37 ± 5
4,"target 1 A1G,U3G (mixed) RNA 1: CACCCGUGCAAAAAUGCAGGGGUCUAAAACUGAGCGGAUAACCUCUCUAUGG RNA 2: GGGAAUGGAUCCACAUCUACGAAUUCGUACCAUAGAGAGGUUAUCCGCGCGCCGAGAUCGGAAGAGCACACGU",3.35 ± 0.12
5,"target 1 insG 3' of 21,insG 3' of 4 (mixed) RNA 1: CACCCGUGCAAAAAUGCAGGGGUCUAAAACUGAGCGGAUAACCUCUCUAUGG RNA 2: GGGAAUGGAUCCACAUCUACGAAUUCGUACCGAUAGAGAGGUUAUCCGCGUCACCGAGAUCGGAAGAGCACACGU",51 ± 11
6,"target 1 G13A,U19A (mixed) RNA 1: CACCCGUGCAAAAAUGCAGGGGUCUAAAACUGAGCGGAUAACCUCUCUAUGG RNA 2: GGGAAUGGAUCCACAUCUACGAAUUCGUACCAAAGAGAAGUUAUCCGCUCACCGAGAUCGGAAGAGCACACGU",38 ± 6
7,"target 1 A9G,G17U (mixed) RNA 1: CACCCGUGCAAAAAUGCAGGGGUCUAAAACUGAGCGGAUAACCUCUCUAUGG RNA 2: GGGAAUGGAUCCACAUCUACGAAUUCGUACCAUAUAGAGGUUGUCCGCUCACCGAGAUCGGAAGAGCACACGU",35 ± 6
8,"target 1 insU 3' of 18,insC 3' of 3 (mixed) RNA 1: CACCCGUGCAAAAAUGCAGGGGUCUAAAACUGAGCGGAUAACCUCUCUAUGG RNA 2: GGGAAUGGAUCCACAUCUACGAAUUCGUACCAUAUGAGAGGUUAUCCGCUCCACCGAGAUCGGAAGAGCACACGU",28 ± 4
9,"target 1 G13U,C22U (mixed) RNA 1: CACCCGUGCAAAAAUGCAGGGGUCUAAAACUGAGCGGAUAACCUCUCUAUGG RNA 2: GGGAAUGGAUCCACAUCUACGAAUUCGUAUCAUAGAGAUGUUAUCCGCUCACCGAGAUCGGAAGAGCACACGU",82 ± 27
10,"target 1 del9,del18 (mixed) RNA 1: CACCCGUGCAAAAAUGCAGGGGUCUAAAACUGAGCGGAUAACCUCUCUAUGG RNA 2: GGGAAUGGAUCCACAUCUACGAAUUCGUACCAUGAGAGGUUUCCGCUCACCGAGAUCGGAAGAGCACACGU",100 ± 50
11,"target 1 A1U,U3G (mixed) RNA 1: CACCCGUGCAAAAAUGCAGGGGUCUAAAACUGAGCGGAUAACCUCUCUAUGG RNA 2: GGGAAUGGAUCCACAUCUACGAAUUCGUACCAUAGAGAGGUUAUCCGCGCUCCGAGAUCGGAAGAGCACACGU",8.1 ± 0.4
12,target 1 U3G (mixed) RNA 1: CACCCGUGCAAAAAUGCAGGGGUCUAAAACUGAGCGGAUAACCUCUCUAUGG RNA 2: GGGAAUGGAUCCACAUCUACGAAUUCGUACCAUAGAGAGGUUAUCCGCGCACCGAGAUCGGAAGAGCACACGU,11.3 ± 1.3
13,"target 1 insU 3' of 17,insA 3' of 6 (mixed) RNA 1: CACCCGUGCAAAAAUGCAGGGGUCUAAAACUGAGCGGAUAACCUCUCUAUGG RNA 2: GGGAAUGGAUCCACAUCUACGAAUUCGUACCAUAGUAGAGGUUAUCCAGCUCACCGAGAUCGGAAGAGCACACGU",45 ± 10
14,"target 1 U11G,C22U (mixed) RNA 1: CACCCGUGCAAAAAUGCAGGGGUCUAAAACUGAGCGGAUAACCUCUCUAUGG RNA 2: GGGAAUGGAUCCACAUCUACGAAUUCGUAUCAUAGAGAGGGUAUCCGCUCACCGAGAUCGGAAGAGCACACGU",42 ± 7
15,"target 1 insG 3' of 8,insA 3' of 2 (mixed) RNA 1: CACCCGUGCAAAAAUGCAGGGGUCUAAAACUGAGCGGAUAACCUCUCUAUGG RNA 2: GGGAAUGGAUCCACAUCUACGAAUUCGUACCAUAGAGAGGUUAUGCCGCUCAACCGAGAUCGGAAGAGCACACGU",13.2 ± 0.9
16,"target 1 insA 3' of 19,insA 3' of 10 (mixed) RNA 1: CACCCGUGCAAAAAUGCAGGGGUCUAAAACUGAGCGGAUAACCUCUCUAUGG RNA 2: GGGAAUGGAUCCACAUCUACGAAUUCGUACCAUAAGAGAGGUUAAUCCGCUCACCGAGAUCGGAAGAGCACACGU",30.7 ± 1.4
17,"target 1 insC 3' of 15,insA 3' of 12 (mixed) RNA 1: CACCCGUGCAAAAAUGCAGGGGUCUAAAACUGAGCGGAUAACCUCUCUAUGG RNA 2: GGGAAUGGAUCCACAUCUACGAAUUCGUACCAUAGAGCAGGAUUAUCCGCUCACCGAGAUCGGAAGAGCACACGU",77 ± 24
18,"target 1 insA 3' of 17,insU 3' of 7 (mixed) RNA 1: CACCCGUGCAAAAAUGCAGGGGUCUAAAACUGAGCGGAUAACCUCUCUAUGG RNA 2: GGGAAUGGAUCCACAUCUACGAAUUCGUACCAUAGAAGAGGUUAUCUCGCUCACCGAGAUCGGAAGAGCACACGU",20.6 ± 1.6
19,"target 1 insU 3' of 5,insU 3' of 4 (mixed) RNA 1: CACCCGUGCAAAAAUGCAGGGGUCUAAAACUGAGCGGAUAACCUCUCUAUGG RNA 2: GGGAAUGGAUCCACAUCUACGAAUUCGUACCAUAGAGAGGUUAUCCGUCUUCACCGAGAUCGGAAGAGCACACGU",17.8 ± 2.9
20,"target 1 A1C,U3G (mixed) RNA 1: CACCCGUGCAAAAAUGCAGGGGUCUAAAACUGAGCGGAUAACCUCUCUAUGG RNA 2: GGGAAUGGAUCCACAUCUACGAAUUCGUACCAUAGAGAGGUUAUCCGCGCCCCGAGAUCGGAAGAGCACACGU",46 ± 7
21,"target 1 insA 3' of 11,insA 3' of 11 (mixed) RNA 1: CACCCGUGCAAAAAUGCAGGGGUCUAAAACUGAGCGGAUAACCUCUCUAUGG RNA 2: GGGAAUGGAUCCACAUCUACGAAUUCGUACCAUAGAGAGGUAAUAUCCGCUCACCGAGAUCGGAAGAGCACACGU",8.6 ± 0.5
22,"target 1 G12U,G15U (mixed) RNA 1: CACCCGUGCAAAAAUGCAGGGGUCUAAAACUGAGCGGAUAACCUCUCUAUGG RNA 2: GGGAAUGGAUCCACAUCUACGAAUUCGUACCAUAGAUAGUUUAUCCGCUCACCGAGAUCGGAAGAGCACACGU",23.3 ± 1.8
23,target 1 insG 3' of 18 (mixed) RNA 1: CACCCGUGCAAAAAUGCAGGGGUCUAAAACUGAGCGGAUAACCUCUCUAUGG RNA 2: GGGAAUGGAUCCACAUCUACGAAUUCGUACCAUAGGAGAGGUUAUCCGCUCACCGAGAUCGGAAGAGCACACGU,48 ± 5
24,"target 1 C6U,A18U (mixed) RNA 1: CACCCGUGCAAAAAUGCAGGGGUCUAAAACUGAGCGGAUAACCUCUCUAUGG RNA 2: GGGAAUGGAUCCACAUCUACGAAUUCGUACCAUUGAGAGGUUAUCUGCUCACCGAGAUCGGAAGAGCACACGU",25.8 ± 2
25,"target 1 insU 3' of 17,insA 3' of 15 (mixed) RNA 1: CACCCGUGCAAAAAUGCAGGGGUCUAAAACUGAGCGGAUAACCUCUCUAUGG RNA 2: GGGAAUGGAUCCACAUCUACGAAUUCGUACCAUAGUAGAAGGUUAUCCGCUCACCGAGAUCGGAAGAGCACACGU",15.3 ± 2
26,"target 1 insU 3' of 17,insU 3' of 16 (mixed) RNA 1: CACCCGUGCAAAAAUGCAGGGGUCUAAAACUGAGCGGAUAACCUCUCUAUGG RNA 2: GGGAAUGGAUCCACAUCUACGAAUUCGUACCAUAGUAUGAGGUUAUCCGCUCACCGAGAUCGGAAGAGCACACGU",41 ± 7
27,"target 1 insG 3' of 9,insA 3' of 3 (mixed) RNA 1: CACCCGUGCAAAAAUGCAGGGGUCUAAAACUGAGCGGAUAACCUCUCUAUGG RNA 2: GGGAAUGGAUCCACAUCUACGAAUUCGUACCAUAGAGAGGUUAGUCCGCUACACCGAGAUCGGAAGAGCACACGU",10.3 ± 0.8
28,"target 1 insA 3' of 21,insA 3' of 7 (mixed) RNA 1: CACCCGUGCAAAAAUGCAGGGGUCUAAAACUGAGCGGAUAACCUCUCUAUGG RNA 2: GGGAAUGGAUCCACAUCUACGAAUUCGUACCAAUAGAGAGGUUAUCACGCUCACCGAGAUCGGAAGAGCACACGU",12.6 ± 0.8
